Results published in the supplement of paper PMC9112550, “Optimization of the antimicrobial peptide Bac7 by deep mutational scanning” (BMC Biology, 2022).

Test system: Escherichia coli TOP10
Test: shrunken log2 fold change of peptide-encoding DNA abundance (4.5 h post-induction vs induction); higher = less antimicrobial activity (less host growth inhibition)
Conditions: time post-induction: 4.5 h; library: site-saturation at positions 5, 18, 19, 20
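Also: peptides expressed intracellularly from a pBAD plasmid library in pooled LB shake-flask culture, induced with 0.3% L-arabinose, DNA abundance read by NGS, three biological replicates, DESeq2 with apeglm shrinkage.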

Going from RRIRMRPPRLPRPRPRPFGKPRP to RRIRFRPPRLPRPRPRPQIPPRP, the “shrunken log2 fold change” value falls from 0.129 to -0.475.

Going from RRIRNRPPRLPRPRPRPWDPPRP to RRIRIRPPRLPRPRPRPFTVPRP, the “shrunken log2 fold change” value falls from -0.00879 to -0.214.

RRIRYRPPRLPRPRPRPVIMPRP and RRIRARPPRLPRPRPRPIQSPRP are within 0.2 log units of each other in “shrunken log2 fold change” value: -0.222 for the first, -0.035 for the second.

RRIRLRPPRLPRPRPRPQMGPRP and RRIRKRPPRLPRPRPRPNQRPRP are within 0.2 log units of each other in “shrunken log2 fold change” value: -0.0175 for the first, -0.192 for the second.

RRIRSRPPRLPRPRPRPIMEPRP and RRIRDRPPRLPRPRPRPSYAPRP are within 0.2 log units of each other in “shrunken log2 fold change” value: -0.182 for the first, -0.0918 for the second.

Compared with RRIRGRPPRLPRPRPRPFQKPRP, RRIRVRPPRLPRPRPRPEHCPRP is higher in “shrunken log2 fold change” value: -0.0668 for the first, 0.404 for the second.

First: RRIRDRPPRLPRPRPRPEWPPRP
Second: RRIRCRPPRLPRPRPRPEHHPRP
The “shrunken log2 fold change” value of the first is higher: 0.209 for the first, -0.114 for the second.

Compared with RRIRERPPRLPRPRPRPTQRPRP, RRIRFRPPRLPRPRPRPCSCPRP is lower in “shrunken log2 fold change” value: 0.0475 for the first, -0.879 for the second.

Going from RRIRRRPPRLPRPRPRPDDNPRP to RRIRPRPPRLPRPRPRPSVWPRP, the “shrunken log2 fold change” value falls from 0.18 to -0.0905.

RRIRYRPPRLPRPRPRPQTAPRP and RRIRTRPPRLPRPRPRPTEHPRP are within 0.2 log units of each other in “shrunken log2 fold change” value: -0.0183 for the first, -0.106 for the second.

RRIRNRPPRLPRPRPRPMWCPRP and RRIRFRPPRLPRPRPRPVWVPRP are within 0.2 log units of each other in “shrunken log2 fold change” value: -0.0647 for the first, 0.0313 for the second.

RRIRERPPRLPRPRPRPATYPRP and RRIRQRPPRLPRPRPRPQEVPRP are within 0.2 log units of each other in “shrunken log2 fold change” value: -0.275 for the first, -0.171 for the second.

Going from RRIRCRPPRLPRPRPRPHQKPRP to RRIRRRPPRLPRPRPRPFVDPRP, the “shrunken log2 fold change” value rises from 0.00571 to 0.243.

RRIRQRPPRLPRPRPRPVFGPRP and RRIRMRPPRLPRPRPRPYLRPRP are within 0.2 log units of each other in “shrunken log2 fold change” value: 0.13 for the first, 0.0522 for the second.

First: RRIRARPPRLPRPRPRPHSTPRP
Second: RRIRSRPPRLPRPRPRPRTKPRP
The “shrunken log2 fold change” value of the first is lower: 0.0355 for the first, 0.407 for the second.

RRIRCRPPRLPRPRPRPFQTPRP and RRIRSRPPRLPRPRPRPFPFPRP are within 0.2 log units of each other in “shrunken log2 fold change” value: -0.153 for the first, -0.187 for the second.

RRIRCRPPRLPRPRPRPLGLPRP and RRIRPRPPRLPRPRPRPPWSPRP are within 0.2 log units of each other in “shrunken log2 fold change” value: -0.0163 for the first, 0.00901 for the second.

First: RRIRARPPRLPRPRPRPATPPRP
Second: RRIRHRPPRLPRPRPRPFNHPRP
The “shrunken log2 fold change” value of the first is higher: 0.894 for the first, -0.372 for the second.

Going from RRIRARPPRLPRPRPRPFDWPRP to RRIRQRPPRLPRPRPRPMFAPRP, the “shrunken log2 fold change” value falls from 0.608 to 0.0682.

Compared with RRIRFRPPRLPRPRPRPGAKPRP, RRIRARPPRLPRPRPRPFVMPRP is lower in “shrunken log2 fold change” value: 0.118 for the first, -0.181 for the second.

RRIRFRPPRLPRPRPRPDHQPRP and RRIRQRPPRLPRPRPRPWPCPRP are within 0.2 log units of each other in “shrunken log2 fold change” value: -0.147 for the first, -0.0164 for the second.

RRIRNRPPRLPRPRPRPVWIPRP and RRIRVRPPRLPRPRPRPLCGPRP are within 0.2 log units of each other in “shrunken log2 fold change” value: -0.111 for the first, 0.0478 for the second.

First: RRIRYRPPRLPRPRPRPWANPRP
Second: RRIRARPPRLPRPRPRPYYNPRP
The “shrunken log2 fold change” value of the first is higher: -0.176 for the first, -0.97 for the second.

First: RRIRYRPPRLPRPRPRPADIPRP
Second: RRIRMRPPRLPRPRPRPALYPRP
The “shrunken log2 fold change” value of the first is lower: -0.0376 for the first, 0.765 for the second.

RRIRHRPPRLPRPRPRPQYLPRP and RRIRHRPPRLPRPRPRPSQRPRP are within 0.2 log units of each other in “shrunken log2 fold change” value: 0.00943 for the first, -0.102 for the second.

RRIRERPPRLPRPRPRPKDVPRP and RRIRIRPPRLPRPRPRPWDEPRP are within 0.2 log units of each other in “shrunken log2 fold change” value: -0.152 for the first, -0.156 for the second.

First: RRIRMRPPRLPRPRPRPVNHPRP
Second: RRIRRRPPRLPRPRPRPSFAPRP
The “shrunken log2 fold change” value of the first is lower: -0.327 for the first, 0.492 for the second.

Compared with RRIRNRPPRLPRPRPRPPIAPRP, RRIRARPPRLPRPRPRPRPWPRP is higher in “shrunken log2 fold change” value: -0.312 for the first, 0.499 for the second.

Compared with RRIRQRPPRLPRPRPRPQNNPRP, RRIRNRPPRLPRPRPRPNVLPRP is higher in “shrunken log2 fold change” value: -0.54 for the first, -0.178 for the second.

First: RRIRLRPPRLPRPRPRPHFNPRP
Second: RRIRSRPPRLPRPRPRPPVHPRP
The “shrunken log2 fold change” value of the first is lower: -0.386 for the first, 0.0185 for the second.

RRIRARPPRLPRPRPRPMGNPRP and RRIRPRPPRLPRPRPRPQVNPRP are within 0.2 log units of each other in “shrunken log2 fold change” value: -0.101 for the first, -0.279 for the second.

Going from RRIRFRPPRLPRPRPRPESNPRP to RRIRERPPRLPRPRPRPQTNPRP, the “shrunken log2 fold change” value falls from 0.224 to -0.554.

First: RRIRKRPPRLPRPRPRPTYDPRP
Second: RRIRGRPPRLPRPRPRPIIWPRP
The “shrunken log2 fold change” value of the first is lower: -0.0829 for the first, 0.392 for the second.

RRIRHRPPRLPRPRPRPENWPRP and RRIRKRPPRLPRPRPRPSDLPRP are within 0.2 log units of each other in “shrunken log2 fold change” value: 0.147 for the first, 0.154 for the second.

RRIRIRPPRLPRPRPRPLWIPRP and RRIRFRPPRLPRPRPRPKIKPRP are within 0.2 log units of each other in “shrunken log2 fold change” value: -0.445 for the first, -0.431 for the second.

Compared with RRIRHRPPRLPRPRPRPKIDPRP, RRIRIRPPRLPRPRPRPSDCPRP is lower in “shrunken log2 fold change” value: -0.0926 for the first, -0.497 for the second.

Going from RRIRCRPPRLPRPRPRPIWTPRP to RRIRVRPPRLPRPRPRPACPPRP, the “shrunken log2 fold change” value rises from -0.0919 to 0.311.

With RRIRARPPRLPRPRPRPGDLPRP the “shrunken log2 fold change” value was 0.796.
